2 molecules from US20060073571A1 (CORNELL RESEARCH FOUNDATION, published 2006) can be followed below.

Sequences and labels used below:
B1: human chorionic gonadotropin (hCG), highly purified, CR-125, NICHD (ligand)
chain 1: not shown
chain 2: SKEPLRPRCRPINATLAVEKEGCPVCITVNTTICAGYCPTMTRVLQGVLPALPQVVCNYRDVRFESIRLPGCPRGVNPVVSYAVALSCQCALCRRSTTDCGGPKDHPLTCDDPRFQDSSSSKAPPPSLPSPSRLPGPSDTPILPQ
B2: recombinant chimeric protein hLH-R-ECD-hCG-β-CTP (extracellular domain of hLH-R, Gly-Thr linker, carboxyl terminal peptide of hCG-β) (receptor)
chain: LPRALREALCPEPCNCVPDGALRCPGPTAGLTRLSLAYLPVKVIPSQAFRGLNEVIKIEISQIDSLERIEANAFDNLLNLSEILIQNTKNLRYIEPGAFINLPRLKYLSICNTGIRKFPDVTKVFSSESNFILEICDNLHITTIPGNAFQGMNNESVTLKLYGNGFEEVQSHAFNGTTLTSLELKENVHLEKMHNGAFRGATGPKTLDISSTKLQALPSYGLESIQRLIATSSYSLKKLPSRETFVNLLEATLTYPSHCCAFRNLPTKEQNFSHSISENFSKQCESTVRKVSNKTLYSSMLAESELSGWDYEYGFCLPKTPRCAPEPGTLTCDDPRFQDSSSSKAPPPSLPSPSRLPGPSDTPILPQ
notes: The vector was pBlueBac4.5/V5-His; also called chimera 3; hLH-R-ECD/hCG-CTP

The target of assay [1] is recombinant chimeric hLH-R-hCG-β fusion protein (full-length human lutropin hormone receptor, Arg-Ser linker, … (human)). Briefly: cell-based or functional assay.
The target of assay [2] is B1. Briefly: displacement of biotinylated-hCG by unlabeled hCG on transfected Sf9 cells, HRP-streptavidin ELISA. The protocol:
A competitive binding assay was performed to determine whether hCG would bind to the chimeric protein containing both hLH-R-ECD and hCG-β-CTP. After 24 hr of transfection with recombinant baculovirus, Sf9 insect cells were incubated for 24 hr at 27° C. with 20 ng/μl of biotinylated-hCG and increasing concentrations of unlabeled hCG as the competitor. The Sf9 cells infected with the recombinant baculovirus containing ECD of LH-R alone was set up as the control. The binding of biotinylated-hCG on the surface of the Sf9 insect cells was examined by ELISA using horseradish peroxidase (HRP)-streptavidin conjugate.
A general note: An ELISA detects its analyte on a solid surface through an enzyme-linked reagent.

As for B1, the “intracellular cAMP, increase over baseline” value in assay [1] was approximately 6 fold.
In the case of B2, in assay [2], the binding result is given as “binds”.
